Reference: PMC3048791
Values joined by “and” are separate entries in the source; they are usually repeats but may differ in a detail not shown here. Equal entries are not always repeated.

Target: recombinant ATcpnβ thermosome subunit from Acidianus tengchongensis strain S5 (Acidianus tengchongensis strain S5)
Experiment: cryo-EM structure

subunits per ring (symmetry of top views): 9 and 10
Substance: recombinant ATcpnβ thermosome subunit from Acidianus tengchongensis strain S5 (natural protein)
